Measured values reported in PMC2808448 (Biochemistry, 2010).
Values belong to the molecule of their own block, whether it stands above or below them.

Experiments:
Sco3058 [1] = target: T1, Sco3058 (Streptomyces coelicolor, UniProt Q93J45); test: crystal structure at […] Å; type: biochemical
T1 sequence (Q93J45 1-400): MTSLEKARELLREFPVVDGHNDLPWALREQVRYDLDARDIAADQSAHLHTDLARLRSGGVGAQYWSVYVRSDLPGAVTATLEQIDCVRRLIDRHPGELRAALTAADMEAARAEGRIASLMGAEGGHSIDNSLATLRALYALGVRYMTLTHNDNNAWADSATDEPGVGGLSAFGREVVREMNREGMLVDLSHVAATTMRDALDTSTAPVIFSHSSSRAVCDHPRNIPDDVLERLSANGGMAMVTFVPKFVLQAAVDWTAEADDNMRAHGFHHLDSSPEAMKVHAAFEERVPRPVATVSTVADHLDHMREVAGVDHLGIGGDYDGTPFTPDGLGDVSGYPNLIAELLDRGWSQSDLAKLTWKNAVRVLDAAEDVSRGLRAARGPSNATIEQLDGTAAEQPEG

Sco3058 [2] = target: T1, Sco3058; test: ninhydrin-based dipeptidase assay, L-Leu-D-Ala substrate; type: biochemical
[3] = substrate: CSCC[C@H](N)C(=O)N[C@H](CCC(=O)O)C(=O)O; test: steady-state kinetics of hydrolysis by purified enzyme; type: biochemical, Streptomyces coelicolor; details: […] Zn2+
[4] = substrate: N=C(N)NCCC[C@H](N)C(=O)N[C@H](CC(=O)O)C(=O)O; test: as above; type: biochemical, Streptomyces coelicolor; details: […] Zn2+
[5] = substrate: CSCC[C@H](N)C(=O)N[C@H](CC(C)C)C(=O)O; test: as above; type: biochemical, Streptomyces coelicolor; details: […] Zn2+
[6] = substrate: CC(C)C[C@H](N)C(=O)N[C@H](CCC(=O)O)C(=O)O; test: as above; type: biochemical, Streptomyces coelicolor; details: […] Zn2+
[7] = substrate: CC(C)C[C@H](N)C(=O)N[C@H](C)C(=O)O; test: as above; type: biochemical, Streptomyces coelicolor; details: […] Zn2+
purified protein = substrate: CC(C)C[C@@H](NC(=O)[C@@H](N)Cc1ccc(O)cc1)C(=O)O; test: purified protein; details: […] Zn2+

Molecule: O=C(O)CC(O)(CC(=O)O)C(=O)O [citrate]
Ki (Sco3058 [1]): 25 ± 15 mM

B1: Sco3058 (Streptomyces coelicolor A3(2)) (protein)
chain: MTSLEKARELLREFPVVDGHNDLPWALREQVRYDLDARDIAADQSAHLHTDLARLRSGGVGAQYWSVYVRSDLPGAVTATLEQIDCVRRLIDRHPGELRAALTAADMEAARAEGRIASLMGAEGGHSIDNSLATLRALYALGVRYMTLTHNDNNAWADSATDEPGVGGLSAFGREVVREMNREGMLVDLSHVAATTMRDALDTSTAPVIFSHSSSRAVCDHPRNIPDDVLERLSANGGMAMVTFVPKFVLQAAVDWTAEADDNMRAHGFHHLDSSPEAMKVHAAFEERVPRPVATVSTVADHLDHMREVAGVDHLGIGGDYDGTPFTPDGLGDVSGYPNLIAELLDRGWSQSDLAKLTWKNAVRVLDAAEDVSRGLRAARGPSNATIEQLDGTAAEQPEG
Km [3]: 0.89 ± 0.04 mM | kcat [3]: 340 ± 4 s⁻¹ | kcat/Km [3]: 380000 ± 20000 M⁻¹ s⁻¹ | Km [4]: 0.14 ± 0.02 mM | kcat [4]: 107 ± 3.2 s⁻¹ | kcat/Km [4]: 760000 ± 90000 M⁻¹ s⁻¹ | Km [5]: 0.56 ± 0.03 mM | kcat [5]: 194 ± 4 s⁻¹ | kcat/Km [5]: 350000 ± 30000 M⁻¹ s⁻¹ | Km [6]: 0.55 ± 0.03 mM | kcat [6]: 135 ± 2 s⁻¹ | kcat/Km [6]: 250000 ± 10000 M⁻¹ s⁻¹ | Km [7]: 0.75 ± 0.04 mM | kcat [7]: 160 ± 3 s⁻¹ | kcat/Km [7]: 210000 ± 10000 M⁻¹ s⁻¹ | Km (purified protein): 0.17 ± 0.01 mM | kcat (purified protein): 24 s⁻¹ | kcat/Km (purified protein): 150000 M⁻¹ s⁻¹

Further lines, results first:

Ki (Sco3058 [2]): 1100 ± 200 nM
Molecule: NC(Cc1ccc(O)cc1)P(=O)(O)CC(CC(=O)O)C(=O)O (racemic) [compound 3, phosphinate pseudodipeptide mimic of Tyr-Asp]

Ki (Sco3058 [2]): 2300 ± 300 nM
Molecule: NC(Cc1ccccc1)P(=O)(O)CC(CC(=O)O)C(=O)O (racemic) [compound 2, phosphinate pseudodipeptide mimic of Phe-Asp]
